B1: ZfL2-1_CC, N-terminal construct comprising the coiled coil domain of the ZfL2-1 ORF1p (M15-T91) (domain or fragment, Danio rerio (zebrafish), UniProt Q3LG57 15-91, looked up)
chain: MEALELELEEVESQIRALVVRRSRLRERLLAVPNAKAVSSPKVRGNYNHIIPSTSTPRPSLSRPSAPGARLSQASFT
notes: ORF1 protein (ORF1p) of the ZfL2-1 non-LTR retrotransposon, Danio rerio, Uniprot Q3LG57, residues M15-T91; Expressed from pETM41P from a codon-optimized synthetic template
B2: ZfL2-1 esterase (ZfL2-1_ES) (Danio rerio) (protein)
chain: DVAIIGDSIVRHVRAASSKGNKVRTFCFPGARVKNISTQIPTILGAAESPGAVVLHVGTNDTGLRQSEILKKDFRSLIETVRRTSPATQIIVSGPLPTYRRGNERFSRLLALNEWLITWCKEQKLLFANNWNLFWERPRLFRPDGLHPSRAGAELLSDNISRLLRTI
notes: esterase domain D136-I302, codon-optimized synthetic gene, pETM41P, E. coli BL21-Star; 19 kDa monomer (MBP apparently removed)

Columns and labels:
[1] = molecular target: the molecule itself; test: SEC-MALS; Superdex 75 (10/300 GL) followed online by MALLS; 20 mM Tris/HCl pH 7.5, 250 mM NaCl, 5 mM MgCl2
[2] = substrate: CC(=O)Oc1ccc([N+](=O)[O-])cc1; test: purified protein; type: biochemical, Danio rerio; conditions: 20 mM Tris/HCl pH 7.5, 250 mM NaCl, 5 mM MgCl2, 25°C

Protein	stoichiometry N [1]	Km [2]	kcat [2]
B1	2	–	–
B2	–	430 ± 100 µM	0.32 ± 0.07 s⁻¹
